Measurements from patent US20210371524A1 (VOR BIOPHARMA, published 2021).

T1: Human CD45RABC Antigen (Fragment of Human CD45RABC Isoform) (human, UniProt P08575 26-577)
T1 sequence: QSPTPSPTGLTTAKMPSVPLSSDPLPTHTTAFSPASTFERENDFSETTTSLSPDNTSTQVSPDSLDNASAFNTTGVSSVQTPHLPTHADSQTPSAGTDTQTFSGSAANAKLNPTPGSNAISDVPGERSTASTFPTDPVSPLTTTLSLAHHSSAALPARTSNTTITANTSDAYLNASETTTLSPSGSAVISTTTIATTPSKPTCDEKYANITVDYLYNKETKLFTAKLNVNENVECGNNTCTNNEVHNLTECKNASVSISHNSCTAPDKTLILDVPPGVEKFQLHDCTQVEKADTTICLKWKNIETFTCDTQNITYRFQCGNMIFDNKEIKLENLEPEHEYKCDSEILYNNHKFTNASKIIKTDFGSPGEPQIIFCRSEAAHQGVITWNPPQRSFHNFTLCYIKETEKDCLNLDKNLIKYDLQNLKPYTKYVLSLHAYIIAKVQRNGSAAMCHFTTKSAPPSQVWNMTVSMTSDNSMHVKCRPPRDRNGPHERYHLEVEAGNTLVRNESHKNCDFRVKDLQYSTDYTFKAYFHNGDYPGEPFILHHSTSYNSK

T2: cynomolgus CD45 RABC (cynomolgus, UniProt A0A2K5VQ76 26-1301)
T2 construct: also called cyno CD45RABC; cyno RABC
T2 sequence: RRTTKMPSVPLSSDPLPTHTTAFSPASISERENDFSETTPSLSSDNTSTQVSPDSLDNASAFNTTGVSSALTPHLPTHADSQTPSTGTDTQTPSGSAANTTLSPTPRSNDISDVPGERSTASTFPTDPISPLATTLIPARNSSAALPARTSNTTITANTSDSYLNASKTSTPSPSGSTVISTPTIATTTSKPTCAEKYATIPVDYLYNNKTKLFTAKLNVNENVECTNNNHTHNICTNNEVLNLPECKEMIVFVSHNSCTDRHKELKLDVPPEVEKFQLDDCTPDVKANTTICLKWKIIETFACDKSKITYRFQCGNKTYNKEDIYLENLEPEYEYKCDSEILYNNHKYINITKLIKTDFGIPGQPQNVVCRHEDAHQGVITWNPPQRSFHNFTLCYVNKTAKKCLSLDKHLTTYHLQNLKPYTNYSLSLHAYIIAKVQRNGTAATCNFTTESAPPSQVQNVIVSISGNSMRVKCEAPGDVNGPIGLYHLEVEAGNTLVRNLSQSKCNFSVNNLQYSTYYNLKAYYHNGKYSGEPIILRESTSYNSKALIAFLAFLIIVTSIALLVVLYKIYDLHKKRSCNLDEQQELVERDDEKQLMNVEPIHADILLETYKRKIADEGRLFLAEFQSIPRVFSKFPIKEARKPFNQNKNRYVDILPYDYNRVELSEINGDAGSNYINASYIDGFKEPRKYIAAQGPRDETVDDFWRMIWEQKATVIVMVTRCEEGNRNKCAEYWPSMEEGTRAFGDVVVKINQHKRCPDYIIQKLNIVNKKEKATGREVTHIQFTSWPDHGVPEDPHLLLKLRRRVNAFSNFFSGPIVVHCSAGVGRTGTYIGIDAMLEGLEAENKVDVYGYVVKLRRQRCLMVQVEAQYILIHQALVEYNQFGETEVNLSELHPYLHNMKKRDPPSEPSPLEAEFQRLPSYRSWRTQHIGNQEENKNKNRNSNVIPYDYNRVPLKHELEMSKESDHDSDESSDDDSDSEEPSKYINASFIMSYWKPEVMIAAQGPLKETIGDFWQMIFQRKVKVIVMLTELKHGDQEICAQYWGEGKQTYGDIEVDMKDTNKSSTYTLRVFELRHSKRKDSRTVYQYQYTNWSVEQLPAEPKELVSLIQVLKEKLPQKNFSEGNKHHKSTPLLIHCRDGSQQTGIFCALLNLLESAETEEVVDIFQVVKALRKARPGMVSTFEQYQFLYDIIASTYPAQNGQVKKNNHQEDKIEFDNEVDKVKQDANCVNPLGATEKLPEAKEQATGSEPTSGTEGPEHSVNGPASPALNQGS

T3: Rhesus CD45RABC (rhesus, UniProt A0A1D5R142 26-1310)
T3 sequence: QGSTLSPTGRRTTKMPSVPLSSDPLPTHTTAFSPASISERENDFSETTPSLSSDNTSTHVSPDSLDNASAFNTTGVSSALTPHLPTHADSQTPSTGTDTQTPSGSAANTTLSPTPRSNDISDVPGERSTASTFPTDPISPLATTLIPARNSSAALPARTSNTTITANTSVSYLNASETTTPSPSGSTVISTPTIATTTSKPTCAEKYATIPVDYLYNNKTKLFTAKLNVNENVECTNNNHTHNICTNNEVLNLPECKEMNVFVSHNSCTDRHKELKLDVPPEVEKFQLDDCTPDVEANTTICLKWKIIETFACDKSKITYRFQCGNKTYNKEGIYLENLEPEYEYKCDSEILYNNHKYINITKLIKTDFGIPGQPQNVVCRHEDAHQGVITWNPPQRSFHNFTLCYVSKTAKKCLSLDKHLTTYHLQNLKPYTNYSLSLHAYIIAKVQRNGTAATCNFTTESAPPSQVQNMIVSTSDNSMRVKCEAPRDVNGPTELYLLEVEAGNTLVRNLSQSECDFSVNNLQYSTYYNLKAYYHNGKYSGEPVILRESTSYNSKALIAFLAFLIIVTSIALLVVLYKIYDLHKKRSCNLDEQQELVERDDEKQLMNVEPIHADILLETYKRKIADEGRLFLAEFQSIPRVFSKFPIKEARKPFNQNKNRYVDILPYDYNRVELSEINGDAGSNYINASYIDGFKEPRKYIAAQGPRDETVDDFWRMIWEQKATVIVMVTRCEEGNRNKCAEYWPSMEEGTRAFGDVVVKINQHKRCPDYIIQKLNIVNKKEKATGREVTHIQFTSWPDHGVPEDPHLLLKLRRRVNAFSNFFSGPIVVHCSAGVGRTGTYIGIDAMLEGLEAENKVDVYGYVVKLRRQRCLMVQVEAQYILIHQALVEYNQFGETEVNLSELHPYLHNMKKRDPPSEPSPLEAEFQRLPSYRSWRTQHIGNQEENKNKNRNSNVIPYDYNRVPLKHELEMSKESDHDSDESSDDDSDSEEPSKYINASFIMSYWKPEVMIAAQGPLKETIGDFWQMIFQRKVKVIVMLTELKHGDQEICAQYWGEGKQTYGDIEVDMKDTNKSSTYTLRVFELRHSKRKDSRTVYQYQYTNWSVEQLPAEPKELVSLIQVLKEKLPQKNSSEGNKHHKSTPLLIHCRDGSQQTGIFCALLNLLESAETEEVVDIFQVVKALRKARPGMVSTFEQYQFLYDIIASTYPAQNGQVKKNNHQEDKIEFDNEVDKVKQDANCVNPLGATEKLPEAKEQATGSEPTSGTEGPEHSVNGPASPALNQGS

B1: CD45-AM (chimeric AbA as IgG1 conjugated to amatoxin), Example 2 (antibody, V domains shown)
VH: EVQLVESGGDRVQPGRSLTLSCVTSGFTFNNYWMTWIRQVPGKGLEWVASISSSGGSIYYPDSVKGRFTISRDNAKNTLYLQMNSLRSEDTATYYCARDERWAGAMDAWGQGTSVTVSS
VL: DIQMTQSPPVLSASVGDRVTLSCKASQNINKNLDWYQQKHGEAPKLLIYETNNLQTGIPSRFSGSGSGTDYTLTISSLQPEDVATYYCYQHNSRFTFGSGTKLEIK
modifications: here or on the partner: amatoxin (AM) payload conjugated to the antibody; site and drug to antibody ratio not stated in Example 2
B2: CD45-AM (antibody AbB-amatoxin), Example 4 (antibody, V domains shown)
VH: EVQLVESGGDLVQPGRSLKLSCIASGFTFTNFWMTWIRQVSGKGLEWVASISSSGGSIYYPDSVKDRFTISRDNAKNTLYLQMNSLRSEDTATYYCVKLHYYSGGGDAWGQGTSVTVSS
VL: DIQMTQSPSFLSASVGDRVTINCKASQNINKYLDWYQQKHGEAPKLLIHYTNNLHTGIPSRFSGSGSGTDYTLTISSLQPEDVATYFCLQHSSRWTFGGGTKLELK
modifications: here or on the partner: amanitin conjugated (interchain), drug to antibody ratio (DAR) 4
B3: AbA chimera (chimeric Antibody A, human IgG1) (antibody, V domains shown)
VH: EVQLVESGGDRVQPGRSLTLSCVTSGFTFNNYWMTWIRQVPGKGLEWVASISSSGGSIYYPDSVKGRFTISRDNAKNTLYLQMNSLRSEDTATYYCARDERWAGAMDAWGQGTSVTVSS
VL: DIQMTQSPPVLSASVGDRVTLSCKASQNINKNLDWYQQKHGEAPKLLIYETNNLQTGIPSRFSGSGSGTDYTLTISSLQPEDVATYYCYQHNSRFTFGSGTKLEIK
notes: also called chimeric AbA
B4: AbB chimera (chimeric Antibody B, human IgG1) (antibody, V domains shown)
VH: EVQLVESGGDLVQPGRSLKLSCIASGFTFTNFWMTWIRQVSGKGLEWVASISSSGGSIYYPDSVKDRFTISRDNAKNTLYLQMNSLRSEDTATYYCVKLHYYSGGGDAWGQGTSVTVSS
VL: DIQMTQSPSFLSASVGDRVTINCKASQNINKYLDWYQQKHGEAPKLLIHYTNNLHTGIPSRFSGSGSGTDYTLTISSLQPEDVATYFCLQHSSRWTFGGGTKLELK
notes: also called chimeric AbB
B5: AbC chimera (chimeric Antibody C, human IgG1) (antibody, V domains shown)
VH: EVQLVESGGDLVQPGRSLKLSCVASGFTFNNYWMTWIRQVPGKGLEWVASISSSGGSIYYPDSVKDRFTISRDNAKNTLFLQMNSLRSEDTATYYCARLYYYSGGGDAWGQGTSVTVSS
VL: DIQMTQSPSFLSASVGDRVTIICKASQDINKYLDWYQQKLGEAPKLLIYNTNNLHTGIPSRFSGSGSGTDYTLTISSLQPEDVATYFCLQHISRWTFGGGTKLELK
notes: also called chimeric AbC

Assays:
[1] = molecular target: human CD45 on human cells (PBMC, CD34+CD90+ bone marrow HSCs, cells expressing CD45) (human), P08575; experiment: cell-based or functional assay
[2] = molecular target: T1, Human CD45RABC Antigen (Fragment of …); experiment: Octet (BLI), monovalent binding
cynomolgus CD45 RABC [3] = molecular target: T2, cynomolgus CD45 RABC; experiment: Octet (BLI), monovalent binding
Rhesus CD45RABC [4] = molecular target: T3, Rhesus CD45RABC; experiment: Octet (BLI), monovalent binding
cynomolgus CD45 RABC [5] = molecular target: T2, cynomolgus CD45 RABC; experiment: Octet (BLI), monovalent binding; KD on cyno against KD on human CD45 RABC
Rhesus CD45RABC [6] = molecular target: T3, Rhesus CD45RABC; experiment: Octet (BLI), monovalent binding; KD on rhesus against KD on human CD45 RABC

| Binder | in vitro killing of PBMC immune cells (IC50) [1] | in vitro killing of primary human bone marrow CD34+CD90+ HSCs (IC50) [1] | in vitro killing of human PBMCs, 4 days, Celltiter Glo [1] | in vitro killing of primary human CD34+CD90+ HSCs, 5 days, flow cytometry counts [1] | Kd [2] | Kd (cynomolgus CD45 RABC [3]) | Kd (Rhesus CD45RABC [4]) | Fold cyno to Hu (cynomolgus CD45 RABC [5]) | Fold Rhesus to Hu (Rhesus CD45RABC [6]) |
| --- | --- | --- | --- | --- | --- | --- | --- | --- | --- |
| B1 | 0.055 nM | 0.067 nM |  |  |  |  |  |  |  |
| B2 |  |  | 614 pM | 68 pM |  |  |  |  |  |
| B3 |  |  |  |  | 2.34 nM | 9.33 nM | 12.3 nM | 4 fold | 5 fold |
| B4 |  |  |  |  | 2.84 nM | 14.5 nM | 15.8 nM | 5 fold | 6 fold |
| B5 |  |  |  |  | 7.54 nM | 62.2 nM | 63.5 nM | 8 fold | 8 fold |
